Laboratory results from US20240261333A1 (published 2024).

Assays:
Assay in all cases: anti-FLAG co-IP from lysate of N-FLAG B3GNT2 cells, mass spectrometry
[1] = molecular target: T1, IPO7 (human, UniProt O95373 1-1038)
T1 construct: also called NP_006382.1

[2] = molecular target: T2, IFI16 (human, UniProt Q16666-2 1-729, limits assumed)
T2 construct: also called NP_001193496.1 (+3)
T2 sequence (looked up): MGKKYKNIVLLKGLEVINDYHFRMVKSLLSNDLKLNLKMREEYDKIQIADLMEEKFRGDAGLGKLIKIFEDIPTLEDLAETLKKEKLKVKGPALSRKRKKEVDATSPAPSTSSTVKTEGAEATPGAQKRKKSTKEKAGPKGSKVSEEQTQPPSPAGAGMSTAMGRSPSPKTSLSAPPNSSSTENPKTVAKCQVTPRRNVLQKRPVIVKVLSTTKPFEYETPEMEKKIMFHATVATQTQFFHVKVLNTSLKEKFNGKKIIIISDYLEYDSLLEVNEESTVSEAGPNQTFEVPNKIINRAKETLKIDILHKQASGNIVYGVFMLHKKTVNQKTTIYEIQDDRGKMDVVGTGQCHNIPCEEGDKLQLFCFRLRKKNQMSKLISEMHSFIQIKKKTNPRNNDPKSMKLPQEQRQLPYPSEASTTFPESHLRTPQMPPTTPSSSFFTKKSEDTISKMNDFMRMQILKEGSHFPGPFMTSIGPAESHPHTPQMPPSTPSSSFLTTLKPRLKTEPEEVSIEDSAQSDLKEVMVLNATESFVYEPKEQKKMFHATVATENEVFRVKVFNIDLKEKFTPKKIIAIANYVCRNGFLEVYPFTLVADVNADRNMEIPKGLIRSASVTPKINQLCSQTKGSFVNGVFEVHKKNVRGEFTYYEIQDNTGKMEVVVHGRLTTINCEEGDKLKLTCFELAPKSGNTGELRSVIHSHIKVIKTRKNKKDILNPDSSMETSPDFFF

[3] = molecular target: T3, H1FX (human, UniProt Q92522 2-213)
T3 construct: also called NP_006017.1

[4] = molecular target: T4, SFXN3 (human, UniProt Q9BWM7 1-321)
T4 construct: also called NP_112233.2
T4 sequence (looked up): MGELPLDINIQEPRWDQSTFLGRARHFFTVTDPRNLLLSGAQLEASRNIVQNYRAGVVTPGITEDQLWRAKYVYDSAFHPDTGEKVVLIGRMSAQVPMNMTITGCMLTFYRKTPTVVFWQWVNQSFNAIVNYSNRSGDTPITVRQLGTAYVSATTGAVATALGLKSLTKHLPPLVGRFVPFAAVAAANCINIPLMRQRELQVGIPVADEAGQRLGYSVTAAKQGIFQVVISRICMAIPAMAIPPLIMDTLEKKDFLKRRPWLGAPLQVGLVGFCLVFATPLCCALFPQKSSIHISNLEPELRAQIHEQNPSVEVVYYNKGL

[5] = molecular target: T5, ABCD1 (human, UniProt P33897 1-745)
T5 construct: also called NP_000024.2

[6] = molecular target: T6, TECR (human, UniProt Q9NZ01 1-308)
T6 construct: also called NP_612510.1 (+2)
T6 sequence (looked up): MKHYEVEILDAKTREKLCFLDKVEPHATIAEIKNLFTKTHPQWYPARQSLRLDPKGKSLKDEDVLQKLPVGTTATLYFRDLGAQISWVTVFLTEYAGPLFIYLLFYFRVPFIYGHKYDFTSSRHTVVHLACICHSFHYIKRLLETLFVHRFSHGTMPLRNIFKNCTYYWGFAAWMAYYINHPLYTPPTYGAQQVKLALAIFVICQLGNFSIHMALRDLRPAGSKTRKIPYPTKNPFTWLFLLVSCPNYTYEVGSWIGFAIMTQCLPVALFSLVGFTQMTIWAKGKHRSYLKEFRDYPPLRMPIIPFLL

[7] = molecular target: RPL34 (human, UniProt P49207 2-117)
[8] = molecular target: T7, ELOC (human, UniProt Q15369 1-112)
T7 construct: also called NP_001191791.1

Measured: co-IP mass spectrometry count

T3 sequence (Q92522 2-213 limits assumed): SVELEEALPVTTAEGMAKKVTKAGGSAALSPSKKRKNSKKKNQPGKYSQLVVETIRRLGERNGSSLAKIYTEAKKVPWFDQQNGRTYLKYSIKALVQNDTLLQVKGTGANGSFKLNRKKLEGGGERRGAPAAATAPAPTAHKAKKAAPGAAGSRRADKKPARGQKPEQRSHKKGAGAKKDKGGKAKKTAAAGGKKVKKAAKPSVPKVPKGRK
T1 sequence (O95373 whole entry): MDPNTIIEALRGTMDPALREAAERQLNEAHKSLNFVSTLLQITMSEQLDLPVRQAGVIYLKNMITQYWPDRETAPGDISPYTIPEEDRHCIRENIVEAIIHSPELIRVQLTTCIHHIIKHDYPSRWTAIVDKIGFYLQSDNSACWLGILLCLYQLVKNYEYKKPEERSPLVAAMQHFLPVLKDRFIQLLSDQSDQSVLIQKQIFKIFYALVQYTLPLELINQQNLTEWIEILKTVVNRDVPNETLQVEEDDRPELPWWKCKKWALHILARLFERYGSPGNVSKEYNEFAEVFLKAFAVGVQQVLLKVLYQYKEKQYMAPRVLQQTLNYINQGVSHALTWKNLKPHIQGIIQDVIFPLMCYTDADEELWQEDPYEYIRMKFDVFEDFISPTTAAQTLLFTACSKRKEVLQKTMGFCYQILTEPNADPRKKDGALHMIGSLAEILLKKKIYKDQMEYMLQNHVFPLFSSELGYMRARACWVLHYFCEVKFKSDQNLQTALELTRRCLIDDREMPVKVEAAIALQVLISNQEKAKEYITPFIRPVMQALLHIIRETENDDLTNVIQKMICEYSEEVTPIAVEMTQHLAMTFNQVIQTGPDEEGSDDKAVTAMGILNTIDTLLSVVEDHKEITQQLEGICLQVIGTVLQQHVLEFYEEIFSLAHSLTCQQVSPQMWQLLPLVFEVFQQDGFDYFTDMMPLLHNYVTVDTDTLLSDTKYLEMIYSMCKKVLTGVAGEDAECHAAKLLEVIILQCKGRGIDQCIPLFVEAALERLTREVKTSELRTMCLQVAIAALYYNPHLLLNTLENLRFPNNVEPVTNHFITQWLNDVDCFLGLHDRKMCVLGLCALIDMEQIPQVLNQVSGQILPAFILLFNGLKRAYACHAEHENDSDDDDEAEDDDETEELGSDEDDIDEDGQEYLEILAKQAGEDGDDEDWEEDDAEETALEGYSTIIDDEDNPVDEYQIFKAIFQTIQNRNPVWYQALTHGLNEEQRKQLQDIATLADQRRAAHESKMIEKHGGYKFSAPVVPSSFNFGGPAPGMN
T7 sequence (Q15369 whole entry): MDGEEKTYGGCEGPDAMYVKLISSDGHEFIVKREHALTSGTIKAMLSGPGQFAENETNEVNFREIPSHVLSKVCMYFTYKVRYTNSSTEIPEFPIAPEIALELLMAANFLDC
T5 sequence (P33897 whole entry): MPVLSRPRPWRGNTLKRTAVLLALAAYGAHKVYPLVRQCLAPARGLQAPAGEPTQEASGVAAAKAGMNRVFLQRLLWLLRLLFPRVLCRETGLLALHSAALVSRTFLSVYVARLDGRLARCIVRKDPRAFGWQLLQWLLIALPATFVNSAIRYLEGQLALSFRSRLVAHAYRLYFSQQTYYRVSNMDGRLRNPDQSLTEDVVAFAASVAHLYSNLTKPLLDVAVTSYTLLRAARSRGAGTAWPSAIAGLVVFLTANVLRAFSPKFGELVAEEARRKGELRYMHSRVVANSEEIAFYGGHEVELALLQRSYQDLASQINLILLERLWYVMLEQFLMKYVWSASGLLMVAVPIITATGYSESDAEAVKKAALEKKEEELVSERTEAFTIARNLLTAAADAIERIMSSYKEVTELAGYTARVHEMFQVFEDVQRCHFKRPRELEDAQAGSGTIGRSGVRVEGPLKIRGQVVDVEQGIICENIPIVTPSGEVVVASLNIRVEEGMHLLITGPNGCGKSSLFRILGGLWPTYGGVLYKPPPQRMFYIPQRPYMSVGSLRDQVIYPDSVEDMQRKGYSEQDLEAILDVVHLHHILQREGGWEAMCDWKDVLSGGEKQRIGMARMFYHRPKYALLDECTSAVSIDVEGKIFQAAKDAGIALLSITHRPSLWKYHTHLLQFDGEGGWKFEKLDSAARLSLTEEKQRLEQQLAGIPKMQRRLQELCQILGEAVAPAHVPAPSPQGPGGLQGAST

B1: N-terminal FLAG tagged B3GNT2 (enzyme, human, UniProt Q9NY97 1-397, looked up)
chain: MSVGRRRIKLLGILMMANVFIYFIMEVSKSSSQEKNGKGEVIIPKEKFWKISTPPEAYWNREQEKLNRQYNPILSMLTNQTGEAGRLSNISHLNYCEPDLRVTSVVTGFNNLPDRFKDFLLYLRCRNYSLLIDQPDKCAKKPFLLLAIKSLTPHFARRQAIRESWGQESNAGNQTVVRVFLLGQTPPEDNHPDLSDMLKFESEKHQDILMWNYRDTFFNLSLKEVLFLRWVSTSCPDTEFVFKGDDDVFVNTHHILNYLNSLSKTKAKDLFIGDVIHNAGPHRDKKLKYYIPEVVYSGLYPPYAGGGGFLYSGHLALRLYHITDQVHLYPIDDVYTGMCLQKLGLVPEKHKGFRTFDIEEKNKNNICSYVDLMLVHSRKPQEMIDIWSQLQSAHLKC
notes: Bait of the co-IP; pulled down from cell lysate with mouse anti-FLAG antibody; also called N-FLAG B3GNT2; N-term FLAG; not shown: N-terminal FLAG tag
0: all assays above
